In the supplement of paper PMC10567573:

B1: BEX1 (parent)
chain: EENMERIGEEVRQLMEKLREKQLS
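Further: lentivirally expressed fusions sorted by FACS into six bins by GFP to DsRed ratio, PSI derived from sequencing read proportions per bin multiplied by bin number.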

Variants of: B1
Test: protein stability index of a GFP-peptide fusion (GPS, HEK-293T) (PSI 1-6); higher = more stable
Conditions: c terminus: a fixed tail appended
EENMRRIGEEVRQLMEKLREKQLS [E5R] showed a protein stability index of 4.33.
EENMPRIGEEVRQLMEKLREKQLS [E5P] gave a protein stability index of 4.77.
Variant EENMCRIGEEVRQLMEKLREKQLS [E5C] has a protein stability index of 3.74.
For EENMQRIGEEVRQLMEKLREKQLS [E5Q], the protein stability index was 4.01.
EENMARIGEEVRQLMEKLREKQLS [E5A] showed a protein stability index of 4.28.
Work on EENMWRIGEEVRQLMEKLREKQLS [E5W] yielded a protein stability index of 3.31.
EENMFRIGEEVRQLMEKLREKQLS [E5F] gave a protein stability index of 4.54.
With EENMNRIGEEVRQLMEKLREKQLS [E5N] the protein stability index was 4.96.
For EENMLRIGEEVRQLMEKLREKQLS [E5L], the protein stability index was 3.89.
Work on EENMVRIGEEVRQLMEKLREKQLS [E5V] yielded a protein stability index of 3.3.
EQNMERIGEEVRQLMEKLREKQLS [E2Q] showed a protein stability index of 4.2.
EANMERIGEEVRQLMEKLREKQLS [E2A] gave a protein stability index of 2.97.
For EMNMERIGEEVRQLMEKLREKQLS [E2M], the protein stability index was 4.05.
EDNMERIGEEVRQLMEKLREKQLS [E2D] gave a protein stability index of 4.48.
With ECNMERIGEEVRQLMEKLREKQLS [E2C] the protein stability index was 4.07.
For EYNMERIGEEVRQLMEKLREKQLS [E2Y], the protein stability index was 3.72.
EPNMERIGEEVRQLMEKLREKQLS [E2P] showed a protein stability index of 4.34.
For ESNMERIGEEVRQLMEKLREKQLS [E2S], the protein stability index was 4.23.
With ERNMERIGEEVRQLMEKLREKQLS [E2R] the protein stability index was 4.55.
EHNMERIGEEVRQLMEKLREKQLS [E2H] showed a protein stability index of 4.37.
In the case of EFNMERIGEEVRQLMEKLREKQLS [E2F], the protein stability index is reported as 4.46.
In the case of EKNMERIGEEVRQLMEKLREKQLS [E2K], the protein stability index is reported as 3.64.
EWNMERIGEEVRQLMEKLREKQLS [E2W] gave a protein stability index of 4.53.
For EINMERIGEEVRQLMEKLREKQLS [E2I], the protein stability index was 4.
With EENMERIGEGVRQLMEKLREKQLS [E10G] the protein stability index was 4.24.
In the case of EENMERIGEHVRQLMEKLREKQLS [E10H], the protein stability index is reported as 4.
EENMERIGEMVRQLMEKLREKQLS [E10M] showed a protein stability index of 3.51.
EENMERIGEDVRQLMEKLREKQLS [E10D] showed a protein stability index of 4.76.
EENMERIGEFVRQLMEKLREKQLS [E10F] gave a protein stability index of 2.91.
EENMERIGEAVRQLMEKLREKQLS [E10A] gave a protein stability index of 3.09.
For EENMERIGEPVRQLMEKLREKQLS [E10P], the protein stability index was 4.75.
Work on EENMERIGEKVRQLMEKLREKQLS [E10K] yielded a protein stability index of 3.89.
EENMERIGELVRQLMEKLREKQLS [E10L] gave a protein stability index of 4.63.
EENMERILEEVRQLMEKLREKQLS [G8L] showed a protein stability index of 3.33.
For EENMERIHEEVRQLMEKLREKQLS [G8H], the protein stability index was 4.09.
Variant EENMERIQEEVRQLMEKLREKQLS [G8Q] has a protein stability index of 4.36.
Work on EENMERISEEVRQLMEKLREKQLS [G8S] yielded a protein stability index of 4.47.
In the case of EENMERICEEVRQLMEKLREKQLS [G8C], the protein stability index is reported as 4.73.
Variant EENMERIIEEVRQLMEKLREKQLS [G8I] has a protein stability index of 3.62.
In the case of EENMERIREEVRQLMEKLREKQLS [G8R], the protein stability index is reported as 4.18.
EENMERIYEEVRQLMEKLREKQLS [G8Y] showed a protein stability index of 4.5.
Variant EENMERIAEEVRQLMEKLREKQLS [G8A] has a protein stability index of 3.25.
EENMERIKEEVRQLMEKLREKQLS [G8K] gave a protein stability index of 4.32.
For EENMERITEEVRQLMEKLREKQLS [G8T], the protein stability index was 4.55.
Work on EENMERIEEEVRQLMEKLREKQLS [G8E] yielded a protein stability index of 4.04.
Variant EENMERIWEEVRQLMEKLREKQLS [G8W] has a protein stability index of 3.44.
Variant EENMERIGFEVRQLMEKLREKQLS [E9F] has a protein stability index of 3.7.
In the case of EENMERIGSEVRQLMEKLREKQLS [E9S], the protein stability index is reported as 4.51.
EENMERIGVEVRQLMEKLREKQLS [E9V] gave a protein stability index of 4.07.
EENMERIGIEVRQLMEKLREKQLS [E9I] gave a protein stability index of 4.39.
For EENMERIGPEVRQLMEKLREKQLS [E9P], the protein stability index was 4.98.
For EENMERIGYEVRQLMEKLREKQLS [E9Y], the protein stability index was 4.17.
With EENMERIGNEVRQLMEKLREKQLS [E9N] the protein stability index was 4.02.
With EENMERIGGEVRQLMEKLREKQLS [E9G] the protein stability index was 4.67.
For EENMERIGDEVRQLMEKLREKQLS [E9D], the protein stability index was 3.63.
With EENMERIGAEVRQLMEKLREKQLS [E9A] the protein stability index was 4.76.
Variant EENMERIGKEVRQLMEKLREKQLS [E9K] has a protein stability index of 4.2.
For EENMEFIGEEVRQLMEKLREKQLS [R6F], the protein stability index was 3.72.
EENMETIGEEVRQLMEKLREKQLS [R6T] showed a protein stability index of 4.85.
Variant EENMENIGEEVRQLMEKLREKQLS [R6N] has a protein stability index of 3.84.
EENMEPIGEEVRQLMEKLREKQLS [R6P] gave a protein stability index of 5.03.
In the case of EENMEGIGEEVRQLMEKLREKQLS [R6G], the protein stability index is reported as 5.28.
In the case of EENMEIIGEEVRQLMEKLREKQLS [R6I], the protein stability index is reported as 3.92.
With EENMECIGEEVRQLMEKLREKQLS [R6C] the protein stability index was 4.25.
EENMEWIGEEVRQLMEKLREKQLS [R6W] showed a protein stability index of 4.69.
With EENMEAIGEEVRQLMEKLREKQLS [R6A] the protein stability index was 4.94.
Work on EENMEEIGEEVRQLMEKLREKQLS [R6E] yielded a protein stability index of 5.71.
With EENMEQIGEEVRQLMEKLREKQLS [R6Q] the protein stability index was 4.04.
EENMEHIGEEVRQLMEKLREKQLS [R6H] showed a protein stability index of 5.43.
EENMEKIGEEVRQLMEKLREKQLS [R6K] gave a protein stability index of 4.8.
Variant EENMEVIGEEVRQLMEKLREKQLS [R6V] has a protein stability index of 4.81.
In the case of EENMEYIGEEVRQLMEKLREKQLS [R6Y], the protein stability index is reported as 4.57.
Variant EETMERIGEEVRQLMEKLREKQLS [N3T] has a protein stability index of 3.84.
In the case of EECMERIGEEVRQLMEKLREKQLS [N3C], the protein stability index is reported as 3.89.
With EEPMERIGEEVRQLMEKLREKQLS [N3P] the protein stability index was 4.71.
EEDMERIGEEVRQLMEKLREKQLS [N3D] gave a protein stability index of 3.5.
Work on EEWMERIGEEVRQLMEKLREKQLS [N3W] yielded a protein stability index of 4.32.
EEQMERIGEEVRQLMEKLREKQLS [N3Q] gave a protein stability index of 3.94.
For EERMERIGEEVRQLMEKLREKQLS [N3R], the protein stability index was 3.79.
In the case of EEAMERIGEEVRQLMEKLREKQLS [N3A], the protein stability index is reported as 3.99.
In the case of EEGMERIGEEVRQLMEKLREKQLS [N3G], the protein stability index is reported as 5.04.
Work on EEFMERIGEEVRQLMEKLREKQLS [N3F] yielded a protein stability index of 4.74.
EENHERIGEEVRQLMEKLREKQLS [M4H] gave a protein stability index of 5.09.
In the case of EENEERIGEEVRQLMEKLREKQLS [M4E], the protein stability index is reported as 5.3.
EENRERIGEEVRQLMEKLREKQLS [M4R] gave a protein stability index of 4.75.
EENLERIGEEVRQLMEKLREKQLS [M4L] gave a protein stability index of 4.16.
EENTERIGEEVRQLMEKLREKQLS [M4T] showed a protein stability index of 5.03.
EENSERIGEEVRQLMEKLREKQLS [M4S] gave a protein stability index of 5.45.
With EENQERIGEEVRQLMEKLREKQLS [M4Q] the protein stability index was 3.58.
EENIERIGEEVRQLMEKLREKQLS [M4I] showed a protein stability index of 4.28.
Work on EENYERIGEEVRQLMEKLREKQLS [M4Y] yielded a protein stability index of 4.55.
In the case of EENPERIGEEVRQLMEKLREKQLS [M4P], the protein stability index is reported as 5.96.
In the case of EENDERIGEEVRQLMEKLREKQLS [M4D], the protein stability index is reported as 4.81.
For EENKERIGEEVRQLMEKLREKQLS [M4K], the protein stability index was 5.35.
